# Results from the DeepSol protein solubility set.
# Experiment: soluble on expression in E. coli; label from the status in PepcDB or PDB records
row,Sequence,soluble on expression in E. coli
1,SLIENSHVKKDDIWPSGGQMTVKDLTAKYTEGGNAILENISFSISPGQRVGLLGRTGSGKSTLLSAFLRLLNTEGEIQIDGVSWDSITLEQWRKAFGVIPQKVFIFSGTFRKNLDPYEQWSDQEIWKVADEVGLRSVIEQFPGKLDFVLVDGGCVLSHGHKQLMCLARSVLSKAKILLLDEPSAHLDPVTYQIIRRTLKQAFADCTVILCEARIEAMLECDQFLVIEENKVRQYDSILRLYHYPADRFVAGFIGSPKMNFLPVKVTATAIDQVQVELPMPNRQQVWLPVESRDVQVGANMSLGIRPEHLLPSDIADVILEGEVQVVEQLGNETQIHIQIPSIRQNLVYRQNDVVLVEEGATFAIGLPPERCHLFREDGTACRRLHKEPGV,not soluble
2,SLIFGKIDYINLLPLHIYLKKYPLPNGYKASMEYKKGVPSKLNKDLFYRRIDAAIISSIESARKKYKNLDLGICANKRVLSVLVEKNTSNAKDPSSATSNALAKVLKQDGKVIIGDKALKLYLKDPSKYIDLCAKWHEKTGLPFVFARFSCVQKKALYKQILKKFPKTKIKIPYYILQKYAKTRDLDVKDVRYYLDEVIYHKISTKEKTALKRFVKACKALNLA,soluble
3,SLIKFLSALILLLVTTAAQAERIRDLTSVQGVRQNSLIGYGLVVGLDGTGDQTTQTPFTTQTLNNMLSQLGITVPTGTNMQLKNVAAVMVTASLPPFGRQGQTIDVVVSSMGNAKSLRGGTLLMTPLKGVDSQVYALAQGNILVGGAGASAGGSSVQVNQLNGGRITNGAVIERELPSQFGVGNTLNLQLNDEDFSMAQQIADTINRVRGYGSATALDARTIQVRVPSGNSSQVRFLADIQNMQVNVTPQDAKVVINSRTGSVVMNREVTLDSCAIAQGNLSVTVNRQANVSQPDTPFGGGQTVVTPQTQIDLRQSGGSLQSVRSSASLNNVVRALNALGATPMDLMSILQSMQSAGCLRAKLEII,not soluble
4,SLKAKILFVGPCESGKTVLANFLTESSDITEYNPTQGVRILEFENPHVTSNNKGTGCEFELWDCGGDSKFESCWPALMKDAHGVVIVFNADIPSHLKEIEMWYSCFVQQQFLQDSHCMLVAHHKPGSGGERGSLALSPPLNKLKLVHSNLEEDPEEVRVEFIKYLKSIINSMSESRDREEMLIIT,soluble
5,SLKKEISILNIPFYNTTQAGFVEELYMAAKNGERRFVVTANPEIVMHARTDKEFEAILGQADYIVPDGIGIIMASEKLGEPLKERVTGYDTMVGLLNKPLSCYFLGAKPEISEVVEAKVREKFPQAVVCGVHHGYFDVLESEAIAKEILVAQPDVIFVALGSPAQEKWILSQIANFTKGIFIGVGGSFDVLTDSVKRAPKIWIKLRLEWVYRLLSNPSRWRRFFAIPQFMLVIRKERKRLKKG,soluble
6,SLKKKSLKLTALFLALSCFPAFAEQTVDIEVQGIRGFRAVRNTDLNVNLINKEEMDGSERYQHLVTKAVDRGLRVFGYYESSVRFERKQRQGKRDLLIAHVTPGEPTKIAGTDVQIEGEAAQDENFNALRKNLPKDGVLVEHQTYDDYKTAISRLALNRGYFDGNFKISRLEISPETHQAWWRMLFDSGVRYHYGNITFSHSQIRDDYLNNILNIKSGDPYLMNNLSDLTSDFPSSNWFSSVLVQPNVNHKSKTVDVEIILYPRKKNAMELGVGFSTDGGVHGQIGWTKPWINSRGHSLRSNLYLSAPKQTLEATYRMPLLKNPLNYYYDFAVGWEGEKENDTNTRVLTLSALRYWNNAHGWQYFGGLRMRYDSFTQADITDKTLLLYPTVGFTRTRLRGGSFATWGDVQKITFDLSKRIWLSESSFIKVQASSAWVRTYAENHRVVARAEIGYLHTKGIEKIPPTLRFFAGGDRSVRGYGYKKIAPKNRNGKLVGGSRLLTTSLEYQYQVYPNWWAATFADSGLAADNYTAKELRYGTGVGVRWASPVGAIKFDIATPIRDKDNSKNIQFYIGLGTEI,soluble
7,SLKTPGYPDGPIAIYGDNIFLYSEPTAEEAARFDVVINCAREVSNPFEINKATRRPMSIAEPDTAVSTASFMTAWEFPQGDDSAETPTTPKALQFQEPEYIHIPWDHNTDIAPDLMDLCHVVDDRTKAGKRVLIHCQQGASRSASLIIAYGLFQRPELTVNDAYYAAQAKSQWISPNMKLMYSLQDFQKEVSTKRTAQPSNREG,soluble
8,SLLCVVGGSMNVSMEASIVESLLQRRCLKESDLYRARQLQAESGVGLLPLLGRLGLVSERDHAEVCAEVMGLLLIQVRELPDTPPEFSAEVHGLSIRFLKQFHVCPLAEHDGVLQLCVADPFDVYAIEALRLATGAVLQLCIGLRSEIDDLVERWYGQGRS,soluble
9,SLLEIDNQTPLESDFSLLEKIAKFLAPTQIIELVLVSDETMREINRDLRGCDYVTDVLSFPLEAIPHTPLGSVVINAPLAQENALKLGHRLEEEIALLFIHGVLHLLGYDHEKDKGEQRQKESELIKAFNLPLSLIERTQD,soluble
10,SLMVPVEIRWQQGGSKVYVTGSFTKWRKMIGLIPDSDNNGSFHVKLRLLPGTHRFRFIVDNELRVSDFLPTATDQMGNFVNYIEVRQPEKNPTNEKIRSKEADSMRPPTSDRSSIALQIGKDPDDFGDGYTRFHEDLSPRPPLEYTTDIPAVFTDPSVMERYYYTLDRQQSNTDTSWLTPPQLPPQLENVILNKYYATQDQFNENNSGALPIPNHVVLNHLVTSSIKHNTLCVASIVRYKQKYVTQILYTPI,soluble
11,SLQLESLISAAPALSQQAVDQEWSYMDFLEHLLHEEKLARHQRKQAMYTRMAAFPAVKTFEEYDFTFATGAPQKQLQSLRSLSFIERNENIVLLGPSGVGKTHLAIAMGYEAVRAGIKVRFTTAADLLLQLSTEQRQGRYKTTLQRGVMAPRLLIIDEIGYLPFSQEEAKLFFQVIAKRYEKSAMILTSNLPFGQWDQTFAGDAALTSAMLDRILHHSHVVQIKGESYRLRQKRKAGVIAEANP,not soluble
12,SLQSNILAFTPPAPSASMNVNRTAVVSVTTKDSRAIQEIASYTKHGELIKLNASPSVTQLFQQVMQQNLISKGFRVGQLNGSNAWVTVDVREFGTQVEQGNLRYKLNTKIQATVYVQGAKGSYNKSFNVTHSQEGVFNAGNDEIHKVLSQTFNDIVNNIYQDQEVAAAINQYSN,soluble
13,SLRFLGEKAAAKRQVLNADSVEQSFVGLKQLISCRNWRAAVDLCGRLLTAHGQGYGKSGLLTSHTTDSLQLWFVRLALLVKLGLFQNAEMEFEPFGNLDQPDLYYEYYPHVYPGRRGSMVPFSMRILHAELQQYLGNPQESLDRLHKVKTVCSKILANLEQGLAEDGGMSSVTQEGRQASIRLWRSRLGRVMYSMANCLLLMKDYVLAVEAYHSVIKYYPEQEPQLLSGIGRISLQIGDIKTAEKYFQDVEKVTQKLDGLQGKIMVLMNSAFLHLGQNNFAEAHRFFTEILRMDPRNAVANNNAAVCLLYLGKLKDSLRQLEAMVQQDPRHYLHESVLFNLTTMYELESSRSMQKKQALLEAVAGKEGDSFNTQCLKLA,not soluble
14,SLRILPQEPVIREEQNWLTILKNAISDPKLLLKALNLPEDDFEQSIAARKLFSLRVPQPFIDKIEKGNPQDPLFLQVMCSDLEFVQAEGFSTDPLEEKNANAVPNILHKYRNRLLFMAKGGCAVNCRYCFRRHFPYDENPGNKKSWQLALDYIAAHSEIEEVIFSGGDPLMAKDHELAWLIKHLENIPHLQRLRIHTRLPVVIPQRITDEFCTLLAETRLQTVMVTHINHPNEIDQIFAHAMQKLNAVNVTLLNQSVLLKGVNDDAQILKILSDKLFQTGILPYYLHLLDKVQGASHFLISDIEAMQIYKTLQSLTSGYLVPKLAREIAGEPNKTLYAE,soluble
15,SLSAALRTLKHVLYYSRQCLMVSRNLGSVGYDPNEKTFDKILVANRGEIACRVIRTCKKMGIKTVAIHSDVDASSVHVKMADEAVCVGPAPTSKSYLNMDAIMEAIKKTRAQAVHPGYGFLSENKEFARCLAAEDVVFIGPDTHAIQAMGDKIESKLLAKKAEVNTIPGFDGVVKDAEEAVRIAREIGYPVMIKASAGGGGKGMRIAWDDEETRDGFRLSSQEAASSFGDDRLLIEKFIDNPRHIEIQVLGDKHGNALWLNERECSIQRRNQKVVEEAPSIFLDAETRRAMGEQAVALARAVKYSSAGTVEFLVDSKKNFYFLEMNTRLQVEHPVTECITGLDLVQEMIRVAKGYPLRHKQADIRINGWAVECRVYAEDPYKSFGLPSIGRLSQYQEPLHLPGVRVDSGIQPGSDISIYYDPMISKLITYGSDRTEALKRMADALDNYVIRGVTHNIALLREVIINSRFVKGDISTKFLSDVYPDGFKGHMLTKSEKNQLLAIASSLFVAFQLRAQHFQENSRMPVIKPDIANWELSVKLHDKVHTVVASNNGSVFSVEVDGSKLNVTSTWNLASPLLSVSVDGTQRTVQCLSREAGGNMSIQFLGTVYKVNILTRLAAELNKFMLEKVTEDTSSVLRSPMPGVVVAVSVKPGDAVAEGQEICVIEAMKMQNSMTAGKTGTVKSVHCQAGDTVGEGDLLVELE,soluble
16,SLSGGKYVDSEGHLYTVPIREQGNIYKPNNKAMADELSEKQVYDAHTKEIDLVNRDPKHLNDDVVKIDFEDVIAEPEGTHSFDGIWKASFSTFTVTKEG,soluble
17,SLTEKDVLSQEEIDALLDSVDESIDGETNDEELNSSDQPARKKPEDTTGQELNSTFDSDIKVAEEGVKTLNFTGQERIVKGQLPVLDKIYDRAVRLFAADIYHLTARDFEIKQDPLLITKHKEFMRSLPNPSLIGIYKFKPLRGKGIILFDSTFVYDLVDYYFGGNSQFGAQKDKTDFTATELRVMEVVTKKLVTNLTHAWEPIIQLDVTKFNDETNPQLVNIAEPEEMLLVARFLLNFGKETGAFYFILPYSMLEPIKQQLELGASRPDDEIDPNWINSLKEELMDVELTVSASMAETVSTLGQVMAWKVGDFVPLEINEEVTLDIEGTPSFTATLGSANEKRALKIIKIIRY,soluble
18,SLTGQLHPAVRVADLLQHINQMKTAEGYGFKQEYESFFEGWDATKKKDKVKGSRQEPMPAYDRHRVKLHPMLGDPNADYINANYIDGYHRSNHFIATQGPKPEMVYDFWRMVWQEHCSSIVMITKLVEVGRVKCSRYWPEDSDTYGDIKIMLVKTETLAEYVVRTFALERRGYSARHEVRQFHFTAWPEHGVPYHATGLLAFIRRVKASTPPDAGPIVIHCSAGTGRTGCYIVLDVMLDMAECEGVVDIYNCVKTLCSRRVNMIQTEEQYIFIHDAILEACLCGETTIPVSEFKATYKEMIRIDPQSNSSQLREEFQTLNSVTPPLDVEECSIALLPRNRDKNRSMDVLPPDRCLPFLISTDGDSNNYINAALTDSYTRSAAFIVTLHPLQSTTPDFWRLVYDYGCTSIVMLNQLNQSNSAWPCLQYWPEPGRQQYGLMEVEFMSGTADEDLVARVFRVQNISRLQEGHLLVRHFQFLRWSAYRDTPDSKKAFLHLLAEVDKWQAESGDGRTIVHCLNGGGRSGTFCACATVLEMIRCHNLVDVFFAAKTLRNYKPNMVETMDQYHFCYDVALEYLEGLESR,not soluble
19,SLVKSTSCTTIDFMNMSQLTERTFTSSESLSSLSLFLSLARGQCRPGKFWHRRSFRQKFLLRSLIMPRLSVEWMNELSHWPNLNVLLTRQPRLPVRLHRPYLAANLSRKQLLEALRYHYALLRGCMSAEEFSLYLNTPGLQLAKLEGKNGEQFTLELTMMISMDKEGDSTILFRNSEGIPLAEITFTLCEYQGKRTMFIGGLQGAKWEIPHQEIQNATKACHGLFPKRLVMEAACLFAQRLQVEQIIAVSNETHIYRSLRYRDKEGKIHADYNAFWESVGGVCDAERHYRLPAQIARKEIAEIASKKRAEYRRRYEMLDAIQPQMATMFRG,not soluble
20,SLVTSLKGLWTLRAFGRQPYFETSGGGSGGGSGGGSGGGSGGGEYNLTTTEVVMENVTAFWEEGGTPVLKDINFKIERGQLLAVAGSTGAGKTSLLMMIMGELEPSEGKIKHSGRISFCSQFSWIMPGTIKENIIFGVSYDEYRYRSVIKACQLEEDISKFAEKDNIVLGEGGITLSGGQRARISLARAVYKDADLYLLDSPFGYLDVLTEKEIFESCVCKLMANKTRILVTSKMEHLKKADKILILHEGSSYFYGTFSELQNLQPDFSSKLMG,soluble
